Consider 3 molecules from patent US11433139B2, “Peptide vaccines against interleukin-31” (Zoetis Services LLC, priority 2018, dated 2022).

In test [1] the test system is feline IL-31. Kind of test: IL-31 induced pruritus model in cats, antibody pre-bound to feline IL-31. Format: in vivo, cat. The method, then:
To test the preliminary efficacy of mouse: feline 11E12 chimera, mouse: feline 15H05 chimera, and felinized 11 E12 (Feline 11E12 1.1), an IL-31 induced pruritus model in cats was developed. Following an intravenous dose of 0.5 μg/kg feline IL-31 (SEQ ID NO: 159; Feline_IL-31_E_coli), the corresponding nucleotide sequence for which is (SEQ ID NO: 160; Feline_IL-31_E_coli), cats will portray transient pruritic behavior that includes (but is not limited to) licking, chewing, scratching, and head or body shaking. Rubbing up against the cage was not considered a pruritic activity. Pruritic observations take place by a trained investigator for 30 minutes prior to administration of the IL-31 protein and for 1 hour following. For this study, a baseline challenge with feline IL-31 was performed up to 1 month prior to dosing with antibody. On day zero, a 0.5 mg/kg antibody dose was combined with 0.5 μg/kg of feline IL-31 at room temperature for 60 minutes prior to injecting the pre-bound complex into each animal. A “no mAb” control was included for a control. The dose of mAb represents a gross molar excess of antibody to cytokine. Pruritic activity was monitored as described on days 0, 7, and 21.
Target sequence in this assay (as listed by the source): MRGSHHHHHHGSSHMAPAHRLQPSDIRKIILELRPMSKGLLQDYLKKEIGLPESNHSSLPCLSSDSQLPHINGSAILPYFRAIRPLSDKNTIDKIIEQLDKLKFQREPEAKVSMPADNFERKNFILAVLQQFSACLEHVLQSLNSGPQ

In test [2] the test system is feline IL-31. Kind of test: Inhibition of feline IL-31 induced pSTAT3 signaling in feline FCWF4 macrophage-like cells. As to conditions: for potency (IC50) against feline IL-31 in feline FCWF4 cells: 0.2 μg/mL feline IL-31, pSTAT3, FCWF4 cells (FIG. 3). Format: cell-based. The method, then: (§1) To identify candidates with inhibitory activity, antibodies were assessed for their ability to affect IL-31-mediated STAT3 phosphorylation in either a canine or feline cell-based assay. STAT3 phosphorylation was determined in canine DH-82 (ATCC® CRL-10389™) or feline FCWF4 macrophage-like cells (ATCC CRL-2787). DH82 and FCWF4 cells were primed with canine interferon gamma (R&D Systems, Minneapolis, Minn.) at 10 ng/mL for 24 hours or feline interferon gamma (R&D Systems, Minneapolis, Minn.) at 125 ng/mL for 96 hours, respectively, to increase receptor expression. Both cell types were serum starved for 2 hours prior to IL-31 and mAb treatment. Using two independent methods, all candidate mAbs were evaluated for their ability to inhibit either 1 μg/mL canine or 0.2 μg/mL feline IL-31 induced STAT3 phosphorylation. […] To ensure complex formation, a one hour co-incubation of mAb and IL-31 cytokine prior to cell stimulation was completed. IL-31 cell stimulation was carried out for five minutes. STAT3 phosphorylation was measured using AlphaLISA SureFire ULTRA™ technology (Perkin Elmer, Waltham, Mass.). In the case where antibody concentration and purity are unknown, hybridoma supernatants were qualitatively measured for their ability to inhibit STAT3 phosphorylation following a 1 hour co-incubation with […] IL-31. The potency of individual monoclonal antibodies defined by their ability to inhibit IL-31 mediated STAT3 phosphorylation in these assays was considered the key selection criteria for further advancement of select antibodies. The term potency refers to the IC50 value calculated from these assays and is the concentration of the antibody where signaling induced by IL-31 is reduced to one half its maximal value.

The subject of test [3] is feline IL-31. Briefly: Inhibition of feline IL-31 induced pSTAT3 signaling in canine DH-82 cells. The test is classed as cell-based. As to conditions: feline IL-31, pSTAT3, canine DH82 cells (FIG. 3). The method, then:
as §1
Target sequence in this assay (as listed by the source): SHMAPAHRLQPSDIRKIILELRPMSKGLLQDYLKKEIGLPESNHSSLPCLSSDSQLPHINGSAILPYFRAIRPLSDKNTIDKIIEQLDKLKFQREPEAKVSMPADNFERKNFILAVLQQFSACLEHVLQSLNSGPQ

The target of test [4] is canine IL-31. Briefly: Affinity of anti-IL-31 antibodies by surface plasmon resonance (Biacore), canine IL-31 surface. The test is classed as binding. The conditions noted are these: IL-31 conjugated to the surface (FIG. 2). In short, it runs like this:
(§2)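 IL-31 amine-coupled (NHS/EDC) at 5 μg/mL directly onto the SPR chip, quenched with ethanolamine; candidate mAbs flowed over as analyte. KD from 1:1 model fits; values below 1×10^−11 M are under the instrument's lower quantitation limit.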
A general note: Surface plasmon resonance follows binding to a sensor surface in real time, without labels.

For test [5], the target named is feline IL-31. Kind of test: Affinity of anti-IL-31 antibodies by surface plasmon resonance (Biacore), feline IL-31 surface. Format: binding. The conditions noted are these: IL-31 conjugated to the surface (FIG. 2). In short, it runs like this: as §2
Target sequence in this assay (as listed by the source): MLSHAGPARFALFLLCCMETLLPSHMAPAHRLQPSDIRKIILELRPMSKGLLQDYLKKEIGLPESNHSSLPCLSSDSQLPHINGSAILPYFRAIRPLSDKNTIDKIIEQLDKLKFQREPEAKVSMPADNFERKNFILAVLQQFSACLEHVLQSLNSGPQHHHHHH
Another test has as its system equine IL-31. Kind of test: Biacore binding, single test concentration of antibody, equine IL-31 surface. Here is the method: For the indirect ELISA, binding (ELISA OD) to wildtype feline IL-31 and a feline IL-31 15H05 mutant which had mutations in the monoclonal antibody 15H05 epitope region was assessed. To confirm binding, biacore analysis was performed using canine, feline, equine, human, the feline 15H05 mutant, and feline 11E12 mutant IL-31 proteins as surfaces and a single test concentration of antibody. The feline IL-31 11E12 mutant had mutations in the monoclonal antibody 11E12 epitope region.
For the indirect ELISA method, antibody binding to wildtype and feline IL-31 15H05 mutant proteins was assessed. […] In comparison, the 11E12 antibody bound to the wild-type feline IL-31 and its binding was not impacted by the mutations in the 15H05 epitope region as evidenced by the data in FIG. 4. To confirm binding, biacore analysis was performed using canine, feline, equine, human, feline 15H05 mutant, and feline 11E12 mutant IL-31 proteins as surfaces and a single test concentration of antibody. Similar to ELISA observations, all antibodies tested bound to wildtype feline IL-31. In agreement with the data described above in this section, mouse antibodies 11 E12 and 15H05 both bound to canine and feline IL-31 surfaces. […] From this group of nine fully canine antibodies, only ZIL1 and ZIL9 cross-reacted with equine IL-31. Of note, antibody 15H05 was the only one of all assayed herein that bound to canine, feline, and equine IL-31 indicating some level of epitope conservation across the three species. In contrast, none of the antibodies described herein bound to human IL-31. Additional biacore surfaces were used to verify ELISA observations showing differential binding of antibodies to wildtype feline IL-31 and two proteins with mutations in the 15H05 (15H05 mutant) or 11 E12 (11E12 mutant) epitopes. […] Differing results can be attributed to differences in the two assay methodologies.

Test [6] has as its target T1, canine IL-31 (Canis lupus familiaris, UniProt A0A8I3S3D1).
T1 construct: made in house; host or cells: CHO cells (CHROMOS ACE system)
T1 sequence (A0A8I3S3D1 24-159): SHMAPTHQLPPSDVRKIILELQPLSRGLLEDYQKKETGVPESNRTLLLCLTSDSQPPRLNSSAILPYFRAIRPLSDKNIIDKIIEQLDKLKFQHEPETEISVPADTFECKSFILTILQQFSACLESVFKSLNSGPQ
Kind of test: Inhibition of canine IL-31 induced pSTAT3 signaling in canine DH-82 and feline FCWF4 cells. The test is classed as cell-based. The conditions noted are these: canine IL-31; canine and feline cell types, cell type of the values not specified. The method, then: as §1

canine IL-31, sequence (as listed by the source): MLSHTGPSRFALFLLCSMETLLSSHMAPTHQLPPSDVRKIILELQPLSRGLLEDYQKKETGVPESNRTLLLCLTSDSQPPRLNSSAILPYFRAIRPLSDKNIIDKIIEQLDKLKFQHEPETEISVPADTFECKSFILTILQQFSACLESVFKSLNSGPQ
equine IL-31, sequence (as listed by the source): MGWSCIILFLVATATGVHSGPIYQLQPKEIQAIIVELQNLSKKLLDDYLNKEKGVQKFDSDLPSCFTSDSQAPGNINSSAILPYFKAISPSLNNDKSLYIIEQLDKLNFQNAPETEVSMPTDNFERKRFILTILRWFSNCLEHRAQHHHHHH

B1: Feline 11E12 1.1: felinized 11E12, FEL_11E12_VH1 paired with FEL_11E12_VL1 (antibody, V domains shown)
VH: QVLLVQSGAEVKKPGASVKIFCKASGYSFTYYDINWLRQAPEQGLEWMGWIFPGDGGTKYNETFKGRLTLTADTSTNTVYMELSSLRSADTAMYYCARGGTSVIRDAMDYWGQGALVTVSS
VL: EIQMTQSPSSLSASPGDRVTITCRASESVDNYGISFMHWYQQKPGKVPKLLIYRASNLESGVPSRFSGSGSGTDFTLTISSLEPEDAATYYCQQSNKDPLTFGQGT
B1: the “pruritus scores compared to placebo control” value is “did not reduce pruritus at day zero” with feline IL-31 [1] (0.5 mg/kg antibody pre-bound with 0.5 μg/kg feline IL-31, days 0, 7, 21, 0.5 mg/kg) and “lack of efficacy” in the test on feline IL-31 [1] (0.5 mg/kg antibody pre-bound with 0.5 μg/kg feline IL-31, days 0, 7, 21, listed as feline 11E12 1.1, 0.5 mg/kg). The “potency (IC50) against feline IL-31 in feline FCWF4 cells” value in the test with feline IL-31 [2] is “loss of potency”; in the test on feline IL-31 [2] (listed as Felinized 11E12 1.1), “approximately a two-fold decrease in potency”. Besides, the “potency (IC50) against feline IL-31 in canine DH82 cells” value with feline IL-31 [3] was “loss of potency”. Moreover, the “affinity (KD) to canine IL-31” value on canine IL-31 [4] is “loss of affinity”. In addition, at feline IL-31 [5], the “affinity (KD) to feline IL-31” value is on record as “loss of affinity”.

B2: ZIL9: fully canine anti IL-31 antibody, VH SEQ ID NO: 83, VL SEQ ID NO: 85 (antibody, listed as Canis familiaris, V domains shown)
VH: EVQLVESGGDLVKPPGSLRLSCVASGFTFSSYDMTWVRQAPGKGLQWVADVNSGGTGTAYAVAVKGRFTISRDNAKKTLYLQMNSLRAEDTAVYYCAKLGVRDGLSVWGQGTLVTVSS
VL: SSVLTQPPSVSVSLGQTATISCSGESLNEYYTQWFQQKAGQAPVLVIYRDTERPSGIPDRFSGSSSGNTHTLTISGARAEDEADYYCESAVDTGTLVFGGGTHLAVL
Consider B2, for which, in the test on equine IL-31, the “binding to equine IL-31 (Biacore)” value is recorded as “cross-reacted”.

B3: mouse: feline 15H05 chimera: mouse 15H05 variable regions on feline IgG constant regions (antibody)
heavy: QVQLQQSAAELARPGASVKMSCKTSGYTFTSYTIHWIKQRPGQGLEWIGNINPTSGYTENNQRFKDKTTLTVDRSSNTAYLQLHSLTSEDSAVYFCARWGFKYDGEWSFDVWGAGTTVTVSSASTTAPSVFPLAPSCGTTSGATVALACLVLGYFPEPVTVSWNSGALTSGVHTFPAVLQASGLYSLSSMVTVPSSRWLSDTFTCNVAHPPSNTKVDKTVRKTDHPPGPKPCDCPKCPPPEAAGAPSIFIFPPKPKDTLSISRTPEVTCLVVDLGPDDSDVQITWFVDNTQVYTAKTSPREEQFNSTYRVVSVLPILHQDWLKGKEFKCKVNSKSLPSPIERTISKAKGQPHEPQVYVLPPAQEELSRNKVSVTCLIKSFHPPDIAVEWEITGQPEPENNYRTTPPQLDSDGTYFVYSKLSVDRSHWQRGNTYTCSVSHEALHSHHTQKSLTQSPGK
light: DIQMNQSPSSLSASLGDTITVTCRASQGISIWLSWYQQKPGNIPKVLINKASNLHIGVPPRFSGSGSGTHFTLTITSLQPEDIATYYCLQSQTYPLTFGGGTKLEINRSDAQPSVFLFQPSLDELHTGSASIVCILNDFYPKEVNVKWKVDGVVQNKGIQESTTEQNSKDSTYSLSSTLTMSSTEYQSHEKFSCEVTHKSLASTLVKSFQRSECQRE
Consider B3, for which the “pruritus scores compared to placebo control” value in the test with feline IL-31 [1] (0.5 mg/kg antibody pre-bound with 0.5 μg/kg feline IL-31, days 0, 7, 21) is reported as “significant improvement (p<0.05)”. In addition, the “fold increased IC50 relative to mouse: feline 11E12 chimera” value with feline IL-31 [2] (feline IL-31 induced pSTAT3 signaling in feline FCWF4 cells) is “approximately 2 fold”. Also, the “IC50 against canine IL-31” value in the test with canine IL-31 [6] is 28.61 µg/mL. For the same molecule, on canine IL-31 [4], the “affinity (KD) to canine IL-31” value is on record as “lost some affinity”. For the same molecule, on feline IL-31 [5], the “affinity (KD) to feline IL-31” value is reported as “lost some affinity”.
